Bridge positions count the residues as written; N and C are the ends. Ends that are not written are not given here. GdT = GdDTPA-thiourea
B1: Compound ID NO. 1014 (peptide)
chain: KKWHCYTYFPHHYCVYG
modifications: disulfide 5-14 (inferred); also: coupled to ITC-Gd3 (tris-Gd-DOTAGA isothiocyanate), site not given here

Each binder was assayed against rat collagen (acid soluble, type I, rat tail, Upstate 08-115) (rat) (UniProt P02454) (assay: dried collagen assay, 5 uM each).
Chain of rat collagen (acid soluble, type I, rat tail, Upstate 08-115) (rat) (P02454 152-1207, chain 1 of 2): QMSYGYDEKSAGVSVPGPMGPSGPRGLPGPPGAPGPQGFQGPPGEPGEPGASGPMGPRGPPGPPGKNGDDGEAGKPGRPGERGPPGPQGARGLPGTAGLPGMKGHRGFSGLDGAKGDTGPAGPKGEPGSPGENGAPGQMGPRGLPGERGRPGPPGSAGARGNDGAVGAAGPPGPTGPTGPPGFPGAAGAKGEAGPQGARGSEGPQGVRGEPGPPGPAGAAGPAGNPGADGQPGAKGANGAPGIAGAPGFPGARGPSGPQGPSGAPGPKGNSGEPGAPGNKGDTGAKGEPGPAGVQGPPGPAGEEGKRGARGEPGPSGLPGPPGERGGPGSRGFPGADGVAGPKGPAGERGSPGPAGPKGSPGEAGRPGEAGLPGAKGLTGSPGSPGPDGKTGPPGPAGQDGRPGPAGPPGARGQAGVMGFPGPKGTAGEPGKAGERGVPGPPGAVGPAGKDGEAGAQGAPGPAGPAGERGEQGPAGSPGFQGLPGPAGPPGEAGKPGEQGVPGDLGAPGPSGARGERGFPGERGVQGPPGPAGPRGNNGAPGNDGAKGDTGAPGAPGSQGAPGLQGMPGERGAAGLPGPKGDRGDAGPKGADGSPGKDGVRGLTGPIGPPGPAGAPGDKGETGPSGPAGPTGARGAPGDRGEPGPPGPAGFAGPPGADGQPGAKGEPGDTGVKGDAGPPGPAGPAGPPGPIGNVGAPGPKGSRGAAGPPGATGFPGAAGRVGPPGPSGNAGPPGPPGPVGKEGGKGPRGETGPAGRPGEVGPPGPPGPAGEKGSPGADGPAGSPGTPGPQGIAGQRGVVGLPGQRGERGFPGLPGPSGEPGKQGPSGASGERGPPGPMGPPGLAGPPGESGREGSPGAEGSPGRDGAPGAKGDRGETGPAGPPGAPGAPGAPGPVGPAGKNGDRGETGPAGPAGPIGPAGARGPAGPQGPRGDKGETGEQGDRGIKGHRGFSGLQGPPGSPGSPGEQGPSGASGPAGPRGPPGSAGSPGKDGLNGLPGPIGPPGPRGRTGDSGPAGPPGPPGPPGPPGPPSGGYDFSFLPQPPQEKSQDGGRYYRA
Chain of rat collagen (acid soluble, type I, rat tail, Upstate 08-115) (rat) (P02466 86-1125, chain 2 of 2, further chain): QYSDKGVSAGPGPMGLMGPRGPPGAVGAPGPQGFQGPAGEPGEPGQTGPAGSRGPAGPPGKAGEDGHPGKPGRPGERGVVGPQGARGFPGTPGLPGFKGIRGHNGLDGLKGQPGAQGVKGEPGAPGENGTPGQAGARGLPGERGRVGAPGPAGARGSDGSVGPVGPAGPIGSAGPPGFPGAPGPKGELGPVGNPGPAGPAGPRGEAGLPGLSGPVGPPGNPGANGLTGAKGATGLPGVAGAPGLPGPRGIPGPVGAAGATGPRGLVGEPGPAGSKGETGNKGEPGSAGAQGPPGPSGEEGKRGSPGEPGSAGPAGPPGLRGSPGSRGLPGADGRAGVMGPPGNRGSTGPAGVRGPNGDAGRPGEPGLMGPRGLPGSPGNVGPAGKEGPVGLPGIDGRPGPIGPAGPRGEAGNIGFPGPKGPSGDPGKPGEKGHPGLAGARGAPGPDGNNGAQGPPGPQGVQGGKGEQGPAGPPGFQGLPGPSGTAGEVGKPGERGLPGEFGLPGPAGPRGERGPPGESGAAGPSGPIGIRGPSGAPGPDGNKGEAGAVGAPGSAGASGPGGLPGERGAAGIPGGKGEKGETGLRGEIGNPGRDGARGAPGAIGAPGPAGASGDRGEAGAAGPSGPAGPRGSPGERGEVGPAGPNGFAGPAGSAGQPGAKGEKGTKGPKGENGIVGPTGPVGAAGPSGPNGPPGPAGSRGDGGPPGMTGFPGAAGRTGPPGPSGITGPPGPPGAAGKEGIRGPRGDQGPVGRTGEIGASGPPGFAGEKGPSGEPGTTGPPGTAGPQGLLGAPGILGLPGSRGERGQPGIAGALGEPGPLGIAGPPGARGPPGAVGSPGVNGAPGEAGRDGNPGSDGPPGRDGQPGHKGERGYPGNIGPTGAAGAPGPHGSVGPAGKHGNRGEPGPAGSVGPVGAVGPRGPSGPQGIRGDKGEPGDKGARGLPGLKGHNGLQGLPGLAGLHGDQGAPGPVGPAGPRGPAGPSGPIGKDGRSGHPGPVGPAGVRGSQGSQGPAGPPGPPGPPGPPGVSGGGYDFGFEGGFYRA

In order of falling Rat binding:
1. GKWHCYTKFPYHYCVYY [Compound ID 1011]  93%
2. GKWHCYTKFPHHYCVYYY [Compound ID 1010]  89%
3. GKWHCYTKFPHHYCKYY [Compound ID 1013]  88%
4. GKWHCYTKFPHHYCVYY [Compound ID 979]  86%
5. GdT-GQWHCYTYFPHHYCLYGK (disulfide 5-14 (inferred); not fully specified (residue 18, C-terminus)) [Compound ID 994]  84%
6. GYKWHCTTYFPHHYCLYG [Compound ID 981]  81%
7. GKWHCTTKFPHHYCLYY [Compound ID 980]  80%
8. GKWHCYTYFPHHYCLYVK [Compound ID 989]  74%
9. GdT-GQWHCYTKFPHHYCLYGK (disulfide 5-14 (inferred); not fully specified (residues 8, 18, C-terminus)) [Compound ID 993]  70%
10. GHKWHCTTYFPHHYCLYG [Compound ID 984]  69%
11. GKWHCYTYFPHHYCLYFK [Compound ID 985]  68%
12. GKWHCYTYFPHHYCLYGK [Compound ID 996]  67%
13. GKWHCYTKFPHHYCVYG [Compound ID 978]  66%
14. GKWYCTTYFPHHYCLYG [Compound ID 990]  62%
15. B1  61%
16. GFKWHCTTYFPHHYCLYG [Compound ID 983]  59%
17. KKYWHCYTYFPHHYCVYG [Compound ID 1018]  55%
18. KKAWHCYTYFPHHYCVYG [Compound ID 1016]  50%
19. GVKWHCTTYFPHHYCLYG [Compound ID 982]  47%
20. GKWHCYTKFPHHYCLYGK [Compound ID 995]  42%
21. KKGWHCYTYFPHHYCTYG [Compound ID 1015]  30%
22. KKLWHCYTYFPHHYCVYG [Compound ID 1017]  18%
23. GKWHCYKYFPHHYCLYG [Compound ID 991]  11%

Each binder was assayed against human collagen type I (acid soluble, extracted from placenta, Sigma C7774) (human) (UniProt P02452) (assay: dried collagen assay, 5 uM each).
Chain of human collagen type I (acid soluble, extracted from placenta, Sigma C7774) (human) (P02452 162-1218 limits assumed, chain 1 of 2): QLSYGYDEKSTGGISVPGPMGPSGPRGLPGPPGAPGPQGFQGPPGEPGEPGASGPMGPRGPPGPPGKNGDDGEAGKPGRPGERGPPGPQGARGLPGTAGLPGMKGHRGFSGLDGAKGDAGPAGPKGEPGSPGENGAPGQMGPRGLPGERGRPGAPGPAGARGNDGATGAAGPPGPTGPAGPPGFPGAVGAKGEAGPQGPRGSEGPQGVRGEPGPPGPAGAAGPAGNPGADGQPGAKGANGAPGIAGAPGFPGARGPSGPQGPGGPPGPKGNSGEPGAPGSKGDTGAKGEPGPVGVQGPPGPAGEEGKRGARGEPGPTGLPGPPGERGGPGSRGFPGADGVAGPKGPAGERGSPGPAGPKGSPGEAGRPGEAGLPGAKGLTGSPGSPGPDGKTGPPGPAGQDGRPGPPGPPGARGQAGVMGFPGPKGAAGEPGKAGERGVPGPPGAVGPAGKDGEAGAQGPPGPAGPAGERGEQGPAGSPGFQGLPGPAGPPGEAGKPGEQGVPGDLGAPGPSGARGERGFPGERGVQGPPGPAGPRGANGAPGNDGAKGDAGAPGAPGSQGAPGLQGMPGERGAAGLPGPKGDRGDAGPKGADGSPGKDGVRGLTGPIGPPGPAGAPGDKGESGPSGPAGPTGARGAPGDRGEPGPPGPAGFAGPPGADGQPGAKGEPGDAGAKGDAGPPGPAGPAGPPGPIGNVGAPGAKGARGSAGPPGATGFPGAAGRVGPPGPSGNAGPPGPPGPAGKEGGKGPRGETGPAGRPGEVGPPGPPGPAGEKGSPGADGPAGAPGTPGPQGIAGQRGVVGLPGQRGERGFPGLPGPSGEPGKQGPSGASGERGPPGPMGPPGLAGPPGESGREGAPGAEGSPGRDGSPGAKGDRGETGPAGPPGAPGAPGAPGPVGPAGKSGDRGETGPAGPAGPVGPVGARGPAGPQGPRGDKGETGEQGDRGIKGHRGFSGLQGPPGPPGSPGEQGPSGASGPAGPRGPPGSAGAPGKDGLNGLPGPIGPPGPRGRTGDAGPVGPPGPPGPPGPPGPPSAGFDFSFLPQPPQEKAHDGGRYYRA
Chain of human collagen type I (acid soluble, extracted from placenta, Sigma C7774) (human) (P08123 80-1119 limits assumed, chain 2 of 2, further chain): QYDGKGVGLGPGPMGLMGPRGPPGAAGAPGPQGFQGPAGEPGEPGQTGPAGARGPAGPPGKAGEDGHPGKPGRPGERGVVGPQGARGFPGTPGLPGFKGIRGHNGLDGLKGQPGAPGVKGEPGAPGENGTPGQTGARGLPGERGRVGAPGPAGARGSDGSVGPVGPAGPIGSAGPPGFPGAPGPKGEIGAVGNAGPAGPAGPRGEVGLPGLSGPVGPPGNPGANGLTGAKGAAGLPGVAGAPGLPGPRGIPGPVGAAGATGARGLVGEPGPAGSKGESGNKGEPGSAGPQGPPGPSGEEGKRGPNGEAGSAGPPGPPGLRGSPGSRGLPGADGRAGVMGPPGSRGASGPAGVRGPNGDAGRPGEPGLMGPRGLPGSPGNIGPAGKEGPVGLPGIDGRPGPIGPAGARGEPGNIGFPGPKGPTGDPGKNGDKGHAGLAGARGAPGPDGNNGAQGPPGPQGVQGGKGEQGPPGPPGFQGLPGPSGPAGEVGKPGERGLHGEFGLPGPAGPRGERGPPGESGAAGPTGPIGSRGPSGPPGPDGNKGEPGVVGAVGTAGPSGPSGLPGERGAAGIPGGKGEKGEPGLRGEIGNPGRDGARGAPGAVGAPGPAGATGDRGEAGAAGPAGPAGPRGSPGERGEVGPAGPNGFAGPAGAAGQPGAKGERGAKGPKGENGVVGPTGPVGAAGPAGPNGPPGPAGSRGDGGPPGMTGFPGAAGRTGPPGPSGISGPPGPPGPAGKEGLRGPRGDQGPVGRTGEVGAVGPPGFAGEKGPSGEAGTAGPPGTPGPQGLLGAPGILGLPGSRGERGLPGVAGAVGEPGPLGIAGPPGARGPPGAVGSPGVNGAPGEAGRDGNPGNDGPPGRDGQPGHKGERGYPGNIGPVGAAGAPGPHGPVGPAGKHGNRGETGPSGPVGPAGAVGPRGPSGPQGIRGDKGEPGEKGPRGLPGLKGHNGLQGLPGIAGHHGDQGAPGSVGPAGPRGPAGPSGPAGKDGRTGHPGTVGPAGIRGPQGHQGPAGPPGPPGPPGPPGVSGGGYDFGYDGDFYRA

In order of rising Human binding:
1. GKWHCYKYFPHHYCLYG [Compound ID 991]  23%
2. KKLWHCYTYFPHHYCVYG [Compound ID 1017]  25%
3. KKGWHCYTYFPHHYCTYG [Compound ID 1015]  29%
4. GVKWHCTTYFPHHYCLYG [Compound ID 982]  40%
5. KKAWHCYTYFPHHYCVYG [Compound ID 1016]  48%
6. GKWHCYTKFPHHYCLYGK [Compound ID 995]  51%
7. KKYWHCYTYFPHHYCVYG [Compound ID 1018]  53%
8. GKWHCYTYFPHHYCLYFK [Compound ID 985]  56%
9. GFKWHCTTYFPHHYCLYG [Compound ID 983]  58%
10. GKWYCTTYFPHHYCLYG [Compound ID 990]  59%
11. GKWHCYTKFPHHYCVYG [Compound ID 978]  64%
12. GHKWHCTTYFPHHYCLYG [Compound ID 984]  67%
13. GKWHCYTYFPHHYCLYVK [Compound ID 989]  67%
14. B1  72%
15. GYKWHCTTYFPHHYCLYG [Compound ID 981]  73%
16. GdT-GQWHCYTKFPHHYCLYGK (disulfide 5-14 (inferred); not fully specified (residues 8, 18, C-terminus)) [Compound ID 993]  75%
17. GKWHCYTYFPHHYCLYGK [Compound ID 996]  76%
18. GKWHCYTKFPHHYCKYY [Compound ID 1013]  81%
19. GKWHCTTKFPHHYCLYY [Compound ID 980]  85%
20. GdT-GQWHCYTYFPHHYCLYGK (disulfide 5-14 (inferred); not fully specified (residue 18, C-terminus)) [Compound ID 994]  86%
21. GKWHCYTKFPHHYCVYY [Compound ID 979]  87%
22. GKWHCYTKFPHHYCVYYY [Compound ID 1010]  92%
23. GKWHCYTKFPYHYCVYY [Compound ID 1011]  94%

These binders were tested against human collagen type I (acid soluble, extracted from placenta, Sigma C7774) (human) (UniProt P02452) (assay: dried collagen assay).

In order of falling Dried Human Collagen Binding:
1. YHACYQAGCWIW (disulfide 4-9; not fully specified (C-terminus)) [SEQ ID NO: 1]  56%
2. NWKCWGVVKWECIWA (disulfide 4-12; also: C-terminus presumably amidated (Rink amide resin)) [SEQ ID NO: 5]  24%
3. TWQCSGNQKWSCEWF (disulfide 4-12; also: C-terminus probably amidated (Rink amide resin)) [SEQ ID NO: 6]  20%
4. GWQCFGASDWHCTWV (disulfide 4-12; not fully specified) [SEQ ID NO: 8]  9%
5. YWVCGGDHQSWHCSHP (disulfide 4-13; also: C-terminus probably amidated (Rink amide resin)) [SEQ ID NO: 35]  8%
6. NWYCSQALDNWSCKLR (disulfide 4-13; also: C-terminus likely amidated (Rink amide resin)) [SEQ ID NO: 63]  8%
7. TWICSHNDKGWTCGDQ (disulfide 4-13 (inferred); also: C-terminus likely amidated (Rink amide resin)) [SEQ ID NO: 64]  8%
8. TWACDLDEYGGWQCYTG (disulfide 4-14 (inferred); also: C-terminal amide likely (Rink amide resin)) [SEQ ID NO: 78]  8%
9. FWTCELDFRQSWYCYDK (disulfide 4-14 (inferred); not fully specified) [SEQ ID NO: 79]  8%
10. TWNCYGVTEWHCYMI (disulfide 4-12; not fully specified (C-terminus)) [SEQ ID NO: 9]  7%
11. SWSCGGDHNAWKCQYS (disulfide 4-13; also: C-terminus probably amidated (Rink amide resin)) [SEQ ID NO: 36]  7%
12. LWNCHGTDANWKCVLN (disulfide 4-13; also: C-terminus probably amidated (Rink amide resin)) [SEQ ID NO: 37]  7%
13. KWECVHTKGEWYCETK (disulfide 4-13 (inferred); also: C-terminus likely amidated (Rink amide resin)) [SEQ ID NO: 65]  7%
14. GWSCHGDAADWPCQWS (disulfide 4-13; also: C-terminus probably amidated (Rink amide resin)) [SEQ ID NO: 38]  6%
15. GWQCSGDASVWNCDWI (disulfide 4-13; also: C-terminus probably amidated (Rink amide resin)) [SEQ ID NO: 39]  6%
16. RWSCVLDADGWVCSDN (disulfide 4-13 (inferred); also: C-terminus likely amidated (Rink amide resin)) [SEQ ID NO: 66]  6%
17. GWSCHSMDMQWHCDFS (disulfide 4-13 (inferred); also: C-terminus likely amidated (Rink amide resin)) [SEQ ID NO: 67]  5%
18. SWHCFLENHHWMCSDH (disulfide 4-13 (inferred); also: C-terminus likely amidated (Rink amide resin)) [SEQ ID NO: 68]  5%
19. AKKCWYNDGGHLRCRTL (disulfide 4-14; not fully specified (C-terminus)) [SEQ ID NO: 99]  3%
20. QWFCEMDEYGKWNCGMM (disulfide 4-14; not fully specified (C-terminus)) [SEQ ID NO: 81]  3%
21. PWWCHEMPSMCFGF (disulfide 4-11; also: C-terminus probably amidated (Rink amide resin)) [SEQ ID NO: 3]  2%
22. VWACRGGTTNWHCDL (disulfide 4-13; also: C-terminus probably amidated (Rink amide resin)) [SEQ ID NO: 41]  1%

For YHACYQAGCYIY (disulfide 4-9; not fully specified (C-terminus)) [SEQ ID NO: 108], the % Collagen Binding was 5%.

— patent US20080058636A1, “METHODS OF MYOCARDIAL IMAGING” (Epix Pharmaceuticals, Inc., priority 2005, published 2008)
